One assay deals with T1, Y152A NKG2D-Fc (human, UniProt P26718 78-216).
T1 construct: Biotinylated for the phage selections; also called non-natural Y152A NKG2D; not shown: Fc part; not described
T1 sequence (looked up): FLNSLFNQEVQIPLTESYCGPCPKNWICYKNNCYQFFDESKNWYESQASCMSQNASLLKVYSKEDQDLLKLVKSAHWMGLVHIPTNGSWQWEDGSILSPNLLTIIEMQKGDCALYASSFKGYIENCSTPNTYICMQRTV
Put plainly: phage ELISA: phage clone titrated against Y152A NKG2D. Background: In an ELISA, binding on a coated surface is turned into a signal by an enzyme label.

Assay [1] addresses T2, human NKG2D-Fc (human, UniProt P26718 78-216, limits assumed).
T2 construct: also called natural NKG2D-Fc; not shown: Fc part
T2 sequence (looked up): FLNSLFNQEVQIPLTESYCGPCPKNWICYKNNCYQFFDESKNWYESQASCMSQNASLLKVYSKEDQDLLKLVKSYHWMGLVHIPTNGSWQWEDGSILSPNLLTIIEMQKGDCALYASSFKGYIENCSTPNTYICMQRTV
The assay is described as follows: phage ELISA: phage-displayed ULBP2 α1-α2 variant titrated against NKG2D (the legend gives no form; Example 5 selected on human NKG2D-Fc).

For assay [2], the target named is T2, human NKG2D-Fc. The assay is described as follows: ELISA: protein captured on FGFR3 detected with NKG2D-Fc.
For assay [3], the target named is T3, FGFR3 (plate-coated) (UniProt P22607 23-375).
T3 construct: also called Fibroblast Growth Factor Receptor 3
T3 sequence (looked up): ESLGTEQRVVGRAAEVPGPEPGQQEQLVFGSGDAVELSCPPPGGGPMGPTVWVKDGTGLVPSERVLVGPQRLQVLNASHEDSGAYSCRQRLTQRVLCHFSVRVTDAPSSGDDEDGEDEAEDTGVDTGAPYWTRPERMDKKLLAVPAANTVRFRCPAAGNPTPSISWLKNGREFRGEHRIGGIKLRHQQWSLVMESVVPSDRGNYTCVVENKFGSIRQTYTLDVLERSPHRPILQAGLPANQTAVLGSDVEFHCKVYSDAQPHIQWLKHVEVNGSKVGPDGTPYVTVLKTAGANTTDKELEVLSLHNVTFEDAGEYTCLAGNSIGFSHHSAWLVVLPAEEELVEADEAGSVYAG
The assay is described as follows: ELISA: FGFR3 coated at 2 ug/ml, protein titrated, bound protein detected with NKG2D-Fc and anti-Fc-HRP.

Assay [4] addresses T3, FGFR3 (plate-coated). The description is as above. This is another data set of the same source.
Assay [5] has as its target T2, human NKG2D-Fc. Put plainly: phage ELISA: phage-displayed ULBP3 α1-α2 variant titrated against NKG2D (the legend gives no form; Example 5 selected on human NKG2D-Fc).
Assay [6] has as its target T4, biotinylated human NKG2D (Example 3) (human, UniProt P26718 78-216, limits assumed, biotinylated (site not stated)).
T4 construct: also called recombinant biotinylated NKG2D; surface coated biotinylated human NKG2D
T4 sequence (looked up): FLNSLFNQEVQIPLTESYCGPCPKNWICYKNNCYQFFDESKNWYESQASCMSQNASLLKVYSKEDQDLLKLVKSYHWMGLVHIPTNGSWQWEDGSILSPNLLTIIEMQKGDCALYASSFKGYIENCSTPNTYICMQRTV
Put plainly: biolayer interferometry (Octet), Kd = kOFF/kON.

Assay [7] deals with T4, biotinylated human NKG2D (Example 3). The assay is described as follows: biolayer interferometry (Octet), biotinylated human NKG2D on the surface, 100 nM analyte. (In general: Biolayer interferometry detects binding as a change in optical thickness at a sensor tip.)
The target of assay [8] is T3, FGFR3 (plate-coated). Put plainly: ELISA on FGFR3-coated wells after 1 h at 80 C and 1 h at room temperature.
In assay [9] the target is T3, FGFR3 (plate-coated). The assay is described as follows: ELISA on FGFR3-coated wells after 1 h at 70 C and 1 h at room temperature.

B1: MICA25.17 (ligand)
chain: EPHSLRYNLTVLSWDGSVQSGFLTEVHLDGQPFLRCDRQKCRAKPQGQWAEDVLGNKTWDRETRDLTGWGTTLLMTLAHIKDQKEGLHSLQEIRVCEIHEDNSTRSSQHFYYDGELFLSQNLETLEWTMPQSSRAQTLAMNVRNFLKEDAMETDIGYRLMRADCLSELRRYLKSGVVLRRTV
notes: Tested as phage clone (M13 pIII fusion)
Take B1: the “EC50 (read off the curve)” value with Y152A NKG2D-Fc was around 0.005 phage OD.

B2: MICA25.18 (ligand)
chain: EPHSLRYNLTVLSWDGSVQSGFLTEVHLDGQPFLRCDRQKCRAKPQGQWAEDVLGNKTWDRETRDLTGWGTFLRMTLAHIKDQKEGLHSLQEIRVCEIHEDNSTRSSQHFYYDGELFLSQNLETLEWTMPQSSRAQTLAMNVRNFLKEDAMETDRSGLLMRADCLSELRRYLKSGVVLRRTV
notes: as for B1
For B2, in the assay with Y152A NKG2D-Fc, the “EC50 (read off the curve)” value is around 0.01 phage OD.

B3: V151D (ligand)
α1-α2 domain, fused to pIII of M13 phage: AAEPHSLSYDITVIPKFRPGPRWCAVQGQVDEKTFLHYDCGNKTVTPVSPLGKKLNVTTAWKAQNPVLREVVDILTEQLRDIQLENYTPKEPLTLQARMSCEQKAEGHSSGSWQFSFDGQIFLLFDSEKRMWTTVHPGARKMKEKWENDKDVAMSFHYFSMGDCIGWLEDFLMGMDSTLEPSAGAP
For the molecule B3, the “EC50 (read off the curve)” value with human NKG2D-Fc [1] was ~0.01 OD268 (phage).

B4: ULBP2-α3-iFv.2 (designed binder)
chain: EPHSLCYDITVIPKFRPGPRWCAVQGQVDEKTFLHYDCGNKTVTPVSPLGKKLNVTTAWKAQNPVLREVVDILTEQLRDIQLENYTPKEPLTLQARMSCEQKAEGHSSGSWQFSFDGQIFLLFDSEKRMWTTVHPGARKMKEKWENDKVVAMSFHYFSMGDCIGWLEDFLMGMDSTLEPSAGAPPMVQVTRSEASGGSGDRVTITCRASQDVSTAVAWYQQKPGKAPKLLIYSASFLYSGVPSRFSGSGSGTDFTLTISSLQPEDFATYYCQQSYTTPPTFGQGTKVEIKGGSSRSSSSGGGGSGGGGEVQLVESGGGLVQPGGSLRLSCAASGFTFTSTGISWVRQAPGKGLEWVGRIYPTNGSTNYADSVKGRFTISADTSKNTAYLQMNSLRAEDTAVYYCARTYGIYDLYVDYTEYVMDYWGQGTLVTVSSGGSSRSSSSGGGGSGGGGDIQMTQSPSSLSASGGSGQITVTCRASGFYPWNITLSWRQDGVSLSHDTQQWGDVLPDGQGTYQTWVATRISQGEEQRFTCYMEHSGQHSTHPVPSGKGSHHHHHH
notes: His-tagged, monomeric, insect cells; also called NKG2DL-α3-iFv.2 (ULBP2)
Take B4: in the assay with human NKG2D-Fc [2], the binding result is on record as “binds”. For the same molecule, the “EC50 (read off the curve)” value in the assay with FGFR3 (plate-coated) [3] was around 2 nM.

B5: MICA-α3-iFv.1 (designed binder)
chain: EPHSLRYNLTVLSWDGSVQSGFLTEVHLDGQPFLRCDRQKCRAKPQGQWAEDVLGNKTWDRETRDLTGNGKDLRMTLAHIKDQKEGLHSLQEIRVCEIHEDNSTRSSQHFYYDGELFLSQNLETKEWTMPQSSRAQTLAMNVRNFLKEDAMKTKTHYHAMHADCLQELRRYLKSGVVLRRTVPPMVQVTRSEASGDRVTITCRASQDVSTAVAWYQQKPGKAPKLLIYSASFLYSGVPSRFSGSGSGTDFTLTISSLQPEDFATYYCQQSYTTPPTFGQGTKVEIKGGSSRSSSSGGGGSGGGGEVQLVESGGGLVQPGGSLRLSCAASGFTFTSTGISWVRQAPGKGLEWVGRIYPTNGSTNYADSVKGRFTISADTSKNTAYLQMNSLRAEDTAVYYCARTYGIYDLYVDYTEYVMDYWGQGTLVTVSSGGSSRSSSSGGGGSGGGGDIQMTQSPSSLSASGQITVTCRASGFYPWNITLSWRQDGVSLSHDTQQWGDVLPDGQGTYQTWVATRISQGEEQRFTCYMEHSGQHSTHPVPSGKGSHHHHHH
notes: His-tagged, monomeric, made in insect cells; also called sMICA-α3-iFv.1
On to B5, for which the binding result in the assay with human NKG2D-Fc [2] was “binds”. Also, in the assay with FGFR3 (plate-coated) [4], the “EC50 (read off the curve)” value is around 1 nM.

B6: ULBP3 R162G α1-α2 domain (phage-displayed library parent) (ligand)
chain: AAEPHSLWYNFTIIHLPRHGQQWCEVQSQVDQKNFLSYDCGSDKVLSMGHLEEQLYATDAWGKQLEMLREVGQRLRLELADTELEDFTPSGPLTLQVRMSCESEADGYIRGSWQFSFDGRKFLLFDSNNRKWTVVHAGARRMKEKWEKDSGLTTFFKMVSMGDCKSWLRDFLMHRKKRLEPTAP
As to B6, the binding result in the assay with human NKG2D-Fc [5] is listed as “binds”.

B7: WED-MICA (ligand)
chain: EPHSLRYNLTVLSWDGSVQSGFLTEVHLDGQPFLRCDRQKCRAKPQGQWAEDVLGNKTWDRETRDLTGWGKDLRMTLAHIKDQKEGLHSLQEIRVCEIHEDNSTRSSQHFYYDGELFLSQNLETKEWTMPQSSRAQTLAMNVRNFLKEDAMETDTHYHAMHADCLQELRRYLKSGVVLRRTVPPMVQVTRSEASGGSGDRVTITCRASQDVSTAVAWYQQKPGKAPKLLIYSASFLYSGVPSRFSGSGSGTDFTLTISSLQPEDFATYYCQQSYTTPPTFGQGTKVEIKGGSSRSSSSGGGGSGGGGEVQLVESGGGLVQPGGSLRLSCAASGFTFTSTGISWVRQAPGKGLEWVGRIYPTNGSTNYADSVKGRFTISADTSKNTAYLQMNSLRAEDTAVYYCARTYGIYDLYVDYTEYVMDYWGQGTLVTVSSGGSSRSSSSGGGGSGGGGDIQMTQSPSSLSASGGSGQITVTCRASGFYPWNITLSWRQDGVSLSHDTQQWGDVLPDGQGTYQTWVATRISQGEEQRFTCYMEHSGQHSTHPVPSGKGSHHHHHH
notes: also called WED-α1-α2 domains; WED soluble MICA protein
In the case of B7, the “apparent Kd (pooled screen)” value in [6] is 5.9 nM. Moreover, in assay [7], the “apparent koff (pooled screen)” value turned out to be 0.0017 s⁻¹ and the “apparent kon (pooled screen)” value was 290000 M⁻¹ s⁻¹.

B8: MICA-α3-iFv.2 (designed binder)
chain: EPHSLRYNLTVLSWDGSVQSGFLTEVHLDGQPFLRCDRQKCRAKPQGQWAEDVLGNKTWDRETRDLTGNGKDLRMTLAHIKDQKEGLHSLQEIRVCEIHEDNSTRSSQHFYYDGELFLSQNLETKEWTMPQSSRAQTLAMNVRNFLKEDAMKTKTHYHAMHADCLQELRRYLKSGVVLRRTVPPMVQVTRSEASGGSGDRVTITCRASQDVSTAVAWYQQKPGKAPKLLIYSASFLYSGVPSRFSGSGSGTDFTLTISSLQPEDFATYYCQQSYTTPPTFGQGTKVEIKGGSSRSSSSGGGGSGGGGEVQLVESGGGLVQPGGSLRLSCAASGFTFTSTGISWVRQAPGKGLEWVGRIYPTNGSTNYADSVKGRFTISADTSKNTAYLQMNSLRAEDTAVYYCARTYGIYDLYVDYTEYVMDYWGQGTLVTVSSGGSSRSSSSGGGGSGGGGDIQMTQSPSSLSASGGSGQITVTCRASGFYPWNITLSWRQDGVSLSHDTQQWGDVLPDGQGTYQTWVATRISQGEEQRFTCYMEHSGQHSTHPVPSGKGSHHHHHH
notes: His-tagged, monomeric, made in insect cells; also called sMICA-α3-iFv.2
Consider B8, for which the “EC50 (read off the curve)” value was around 5 nM with FGFR3 (plate-coated) [8], around 5 nM in the assay with FGFR3 (plate-coated) [9] and around 2 nM with FGFR3 (plate-coated) [4].

These data come from patent US20180134765A1 (AVIDBIOTICS, published 2018).
